Assay results: PMC3021122

Tests used:
[1] = molecular target: T1, Shigella flexneri Spa15 (residues 1-133), N-terminal His tag, unlabelled (Shigella flexneri), P35530; experiment: SEC; HiLoad 26/60 Superdex 75, 20 mM Tris-HCl (pH 7.5), 150 mM NaCl; Spa15 alone; conditions: remark: other sources report otherwise
T1 chain: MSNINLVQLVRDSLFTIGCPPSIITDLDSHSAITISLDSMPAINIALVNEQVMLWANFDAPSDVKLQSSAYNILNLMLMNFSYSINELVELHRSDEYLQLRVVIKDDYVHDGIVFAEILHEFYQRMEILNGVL

[2] = molecular target: T1, Shigella flexneri Spa15 (residues …); experiment: multi-angle laser light scattering; co-purified Spa15:IpgB1 complex; data not shown; conditions: remark: other sources report otherwise

B1: Shigella flexneri Spa15 (residues 1-133), N-terminal His tag, unlabelled, P35530 1-133 (natural protein)
chain: T1 chain
- stoichiometry N [1]: 2
- stoichiometry N [2]: 2
